From US8524666 (IBCC, dated 2013)

Experiments:
Assay in all cases: GST pull-down from transfected MCF-7 lysate, western blot
[1] = target: T1, vimentin deletion mutant containing aa 97-466 of SEQ ID NO: 1 (human, UniProt P08670 97-464)
T1 construct: Tested in lysate of transfected MCF-7 cells; The forward oligo carries an ATG start codon before the fragment; not shown: C-terminal Myc and His tags of the pcDNA3.1/MycHis B vector
Description: (§1) Full length vimentin or its deletion mutant constructs were transfected into MCF-7 cells. After incubation cells were lysed and lysate was used in pull-down reaction using GST-tagged CD44-HABD proteins immobilised onto glutathione sepharose beads. After pull-down, beads were washed and bound proteins were eluted. Eluates were analysed on western blot. A, vimentin deletion mutants used in pull-down reactions. B, WB of pull-down reactions from vimentin and its deletion mutant transfected cell lysates.
(§2) CD44-3MUT binding of vimentin deletion mutants was tested using GST pull-down from cell lysates. MCF-7 cells were transfected with vimentin deletion-constructs on 15 cm cell culture plates using 20 µg DNA with polyethyleneimine (PEI; DNA and PEI were used in ratio 1:2). Transfected cells were incubated at 37° C. for 72 h. Thereafter, adherent cells were washed once with cold PBS and lysed in 2 ml of lysis buffer containing 50 mM Tris pH 8.0, 50 mM NaCl, 2% CHAPS and protease inhibitor cocktail (Roche). For removal of insoluble material the lysates were centrifuged 14000 rpm 30 min at 4° C. Resulting lysates were used in GST pull-down. For pull-down 10 µg GST, GST-HABD or GST-3MUT were immobilised onto glutathione sepharose 4 fast flow beads (GE Healthcare) in 0.5 ml of PBS. Cell lysates were precleared by incubating the lysates with GST-coupled glutathione beads for 2 h at 4° C. with continuous rotation. After preclearing, the lysates (0.6 vol per reaction) were incubated over-night at 4° C. with GST, GST-HABD or GST-3MUT proteins immobilised onto 25 µl glutathione sepharose beads. After pull-down reactions, beads were washed 4 times with 0.3 ml vol wash buffer containing 50 mM Tris pH 8.0, 150 mM NaCl and protease inhibitor cocktail. Bound proteins were eluted 3 times with 25 µl volume elution buffer 20 mM reduced glutathione, 50 mM Tris pH 8.0. Eluates were pooled and after SDS PAAG pull-down reactions were analysed by western blotting with anti-His specific pAb (H-15) (Santa Cruz Biotechnology) or anti-vimentin specific pAb (Genway).

[2] = target: T2, vimentin deletion mutant containing aa 134-466 of SEQ ID NO: 1 (human, UniProt P08670 134-464)
T2 construct: Tested in lysate of transfected MCF-7 cells; not shown: EGFP and linker of the pEGFP-C3 vector
T2 sequence (P08670 other isoform, or with tags, fused parts or gaps mutant): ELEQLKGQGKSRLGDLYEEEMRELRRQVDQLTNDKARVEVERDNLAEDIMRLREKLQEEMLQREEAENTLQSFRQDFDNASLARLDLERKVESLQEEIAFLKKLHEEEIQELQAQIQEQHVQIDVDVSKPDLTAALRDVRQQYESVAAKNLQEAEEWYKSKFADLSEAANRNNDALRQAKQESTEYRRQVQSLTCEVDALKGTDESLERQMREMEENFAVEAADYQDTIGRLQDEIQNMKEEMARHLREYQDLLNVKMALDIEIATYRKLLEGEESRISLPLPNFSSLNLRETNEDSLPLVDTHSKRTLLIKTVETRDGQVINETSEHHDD
Description: as §1, §2

[3] = target: T3, vimentin deletion mutant containing aa 407-466 of SEQ ID NO: 1 (human, UniProt P08670 407-464)
T3 construct: Tested in lysate of transfected MCF-7 cells; not shown: EGFP and linker of the pEGFP-C2 vector
T3 sequence (P08670 other isoform, or with tags, fused parts or gaps mutant): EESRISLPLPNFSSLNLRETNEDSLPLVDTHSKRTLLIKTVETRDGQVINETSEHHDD
Description: as §1, §2

Measured: binding result

T1 sequence (P08670 other isoform, or with tags, fused parts or gaps mutant): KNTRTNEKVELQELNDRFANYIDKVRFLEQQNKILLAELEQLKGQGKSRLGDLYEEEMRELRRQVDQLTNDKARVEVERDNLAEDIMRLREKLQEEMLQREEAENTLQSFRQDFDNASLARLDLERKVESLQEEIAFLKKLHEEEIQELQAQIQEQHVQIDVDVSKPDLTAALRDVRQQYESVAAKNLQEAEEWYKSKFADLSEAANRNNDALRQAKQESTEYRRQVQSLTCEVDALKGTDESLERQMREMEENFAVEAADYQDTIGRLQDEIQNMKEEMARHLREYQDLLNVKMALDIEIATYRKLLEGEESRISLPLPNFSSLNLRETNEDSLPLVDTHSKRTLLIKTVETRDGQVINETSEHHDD

B1: GST tagged CD44-HABD R41AR78SY79S mutant (CD44-3MUT) (other, not shown: a dimerising Fc or GST; small tags and cut ends)
chain: QIDLNMTCRFAGVFHVEKNGAYSISRTEAADLCKAFNSTLPTMAQMEKALSIGFETCSSGFIEGHVVIPRIHPNSICAANNTGVYILTSNTSQYDTYCFNASAPPEEDCTSV
notes: Immobilised on glutathione sepharose beads in the pull-downs; also called GST-3MUT; GST-SB101
no binding: all assays above
